Experimental data published in patent publication US20200199204A1.

What was measured:
Assay in all cases: cell-based or functional assay
[1] = target: HIV-1 Env of 3016.V5.c36 (HIV-1)
[2] = target: HIV-1 Env of CAP256.PI (HIV-1)
[3] = target: HIV-1 Env of WITO.33 (HIV-1)
[4] = target: HIV-1 Env of CAP244.D3 (HIV-1)
[5] = target: HIV-1 Env of KER2008.12 (HIV-1)
[6] = target: HIV-1 Env of Q842.d12 (HIV-1)
[7] = target: HIV-1 Env of CAP256.SU (HIV-1)
[8] = target: HIV-1 Env of Q259.d2.17 (HIV-1)
[9] = target: HIV-1 Env of DU172.17 (HIV-1)
[10] = target: HIV-1 Env of 6535.3 (HIV-1)
[11] = target: HIV-1 Env of REJO.67 (HIV-1)
[12] = target: HIV-1 Env of ZM214.15 (HIV-1)
[13] = target: HIV-1 Env of CAP45.G3 (HIV-1)
[14] = target: HIV-1 Env of DU156.12 (HIV-1)
[15] = target: HIV-1 Env of ZM249.1 (HIV-1)
[16] = target: HIV-1 Env of KER2018.11 (HIV-1)
[17] = target: HIV-1 Env of UG037.8 (HIV-1)
[18] = target: HIV-1 Env of Q23.17 (HIV-1)
[19] = target: HIV-1 Env of ZM233.6 (HIV-1)
[20] = target: HIV-1 Env of CM244.ec1 (HIV-1)
[21] = target: HIV-1 Env of MB201 (HIV-1)
[22] = target: HIV-1 Env of RW020.2 (HIV-1)
[23] = target: HIV-1 Env of Q461.e2 (HIV-1)
[24] = target: HIV-1 Env of BG505.w6m (HIV-1)
[25] = target: HIV-1 Env of TRJO.58 (HIV-1)
[26] = target: HIV-1 Env of Q168.a2 (HIV-1)
[27] = target: HIV-1 Env of PVO.04 (HIV-1)
[28] = target: HIV-1 Env of ZM135.10a (HIV-1)
[29] = target: HIV-1 Env of AC10.29 (HIV-1)
[30] = target: HIV-1 Env of CAP210.E8 (HIV-1)
[31] = target: HIV-1 Env of C1080.c3 (HIV-1)
[32] = target: HIV-1 Env of QH0692.42 (HIV-1)
[33] = target: HIV-1 Env of CAAN.A2 (HIV-1)
[34] = target: HIV-1 Env of MB539.2B7 (HIV-1)
[35] = target: HIV-1 Env of 6405.v4.c34 (HIV-1)
[36] = target: HIV-1 Env of 0260.v5.c36 (HIV-1)
[37] = target: HIV-1 Env of THRO.18 (HIV-1)
[38] = target: HIV-1 Env of Q769.d22 (HIV-1)
[39] = target: HIV-1 Env of CNE3 (HIV-1)
[40] = target: HIV-1 Env of SC422.8 (HIV-1)
[41] = target: HIV-1 Env of ZM197.7 (HIV-1)
[42] = target: HIV-1 Env of ZM109.4 (HIV-1)
[43] = target: HIV-1 Env of TRO.11 (HIV-1)
[44] = target: HIV-1 Env of DU422.01 (HIV-1)
[45] = target: HIV-1 Env of ZM53.12 (HIV-1)
[46] = target: HIV-1 Env of TH976.17 (HIV-1)
[47] = target: HIV-1 Env of RHPA.7 (HIV-1)
[48] = target: HIV-1 Env of 96ZM651.02 (HIV-1)

Measured: IC50 (neutralization, TZM-bl)

CAP256-VRC26.31 (antibody)
< 0.0006 µg/mL: [45]
1.66 µg/mL: [44]
3.22 µg/mL: [41]
3 ng/mL: [30]
1.67 µg/mL: [31]
0.002 µg/mL: [16]
< 0.6 ng/mL: [7]
0.74 µg/mL: [19]
0.262 µg/mL: [8]
4.16 µg/mL: [26]
4.46 µg/mL: [14]
> 50 µg/mL: all other assays above

CAP256-VRC26.32 (antibody)
17.8 µg/mL: [27]
0.284 µg/mL: [1]
0.032 µg/mL: [16]
8 ng/mL: [30]
0.561 µg/mL: [20]
0.011 µg/mL: [45]
4 ng/mL: [7]
0.097 µg/mL: [41]
16.8 µg/mL: [15]
0.015 µg/mL: [19]
> 50 µg/mL: all other assays above

CAP256-VRC26.33 (antibody)
22.5 µg/mL: [15]
29.5 µg/mL: [44]
1.73 µg/mL: [41]
0.036 µg/mL: [20]
0.004 µg/mL: [19]
17 ng/mL: [30]
0.037 µg/mL: [16]
7 ng/mL: [7]
0.622 µg/mL: [13]
0.506 µg/mL: [1]
0.015 µg/mL: [45]
> 50 µg/mL: all other assays above
